This is an account of results in PMC8989513.

Bounds are passed on as bounds.

Common to all, as to experiment: BLI
The target of assay [1] is MYC(1–88 Y22A), C-terminally biotinylated.
Assay [2] has as its target C-terminally biotinylated MYC(1–88)ΔMB0.
Assay [3] addresses MYC(1–88 F23A), C-terminally biotinylated.
Assay [4] concerns the target MYC(1–88 P21A), C-terminally biotinylated.
Assay [5] deals with C-terminally biotinylated MYC(1–88).
Assay [6] has as its target biotinyl-MB0 peptide (MYC Box 0, aa 16–33).
In assay [7] the target is MYC(1–88 Y24A), C-terminally biotinylated.

B1: PNUTS(1–148), PNUTS amino-terminal domain (PAD) (domain or fragment)
chain: MGSGPIDPKELLKGLDSFLNRDGEVKSVDGISKIFSLMKEARKMVSRCTYLNILLQTRSPEILVKFIDVGGYKLLNNWLTYSKTTNNIPLLQQILLTLQHLPLTVDHLKQNNTAKLVKQLSKSSEDEELRKLASVLVSDWMAVIRSQS
Take B1: the fold change of KD against wild-type MYC(1–88) in assay [1], in assay [3], in assay [4] and in assay [7] was over 5 fold each time. The Kd in assay [2] was over 100 µM; in assay [5], 3.5 µM; in assay [6], 9.4 µM.
